Earlier results as cited in US20060084109.

Target: T1, Formamidopyrimidine glycosylase (Fpg, MutM) (Escherichia coli) (UniProt P05523)
T1 sequence: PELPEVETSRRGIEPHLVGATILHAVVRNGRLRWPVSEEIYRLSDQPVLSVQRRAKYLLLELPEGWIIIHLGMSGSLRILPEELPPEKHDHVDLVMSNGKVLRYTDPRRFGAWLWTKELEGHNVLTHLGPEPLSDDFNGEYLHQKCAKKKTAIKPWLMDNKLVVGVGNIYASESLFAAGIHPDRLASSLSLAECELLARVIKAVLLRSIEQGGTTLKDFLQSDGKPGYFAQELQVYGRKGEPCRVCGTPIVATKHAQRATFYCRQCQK
Assay: cleavage_in_vitro
Conditions: 8-oxo-dG at position 10, cytidine opposite in complementary strand; CITED Vuyisich and Beal 2002; product from 20 nM substrate, 1 nM Fpg, 7 min, room temperature, no inhibitor

In the case of “TCATGGGTCNTCGGTATA (double strand) [Fpg 18-mer 8-oxo-dG substrate duplex]”, the activity is listed as 2 nM.
